T1: KR-mutant CHC hub (K1163E and R1165D) (bovine, UniProt P49951 1074-1675, K1163E | R1165D)
T1 sequence (looked up): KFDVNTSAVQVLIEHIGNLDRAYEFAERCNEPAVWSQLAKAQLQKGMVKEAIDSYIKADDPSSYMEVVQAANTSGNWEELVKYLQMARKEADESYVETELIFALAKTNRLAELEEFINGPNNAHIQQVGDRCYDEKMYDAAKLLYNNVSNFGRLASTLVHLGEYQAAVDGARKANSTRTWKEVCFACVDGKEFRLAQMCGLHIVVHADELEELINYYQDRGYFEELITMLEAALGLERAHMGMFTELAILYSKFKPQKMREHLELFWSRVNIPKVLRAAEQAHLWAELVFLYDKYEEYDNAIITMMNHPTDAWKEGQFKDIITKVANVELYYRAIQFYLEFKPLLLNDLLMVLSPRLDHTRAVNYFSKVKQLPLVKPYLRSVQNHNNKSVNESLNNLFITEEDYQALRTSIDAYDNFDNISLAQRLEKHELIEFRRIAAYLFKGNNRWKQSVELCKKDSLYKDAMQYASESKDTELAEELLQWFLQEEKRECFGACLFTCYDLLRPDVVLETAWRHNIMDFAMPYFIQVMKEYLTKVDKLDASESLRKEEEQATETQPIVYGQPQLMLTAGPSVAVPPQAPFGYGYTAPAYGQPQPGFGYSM

B1: Bovine clathrin heavy chain residues 1074–1675 (hub), wild type (domain or fragment, UniProt P49951 1074-1675, looked up)
chain: T1 sequence (looked up) with E90K, D92R
B2: Human neuronal LCb, his-tagged fusion protein, wild type (natural protein, UniProt P09497 1-229, looked up)
chain: MADDFGFFSSSESGAPEAAEEDPAAAFLAQQESEIAGIENDEGFGAPAGSHAAPAQPGPTSGAGSEDMGTTVNGDVFQEANGPADGYAAIAQADRLTQEPESIRKWREEQRKRLQELDAASKVTEQEWREKAKKDLEEWNQRQSEQVEKNKINNRIADKAFYQQPDADIIGYVASEEAFVKESKEETPGTEWEKVAQLCDFNPKSSKQCKDVSRLRSVLMSLKQTPLSR

Where a chain is given by its changes, count along the chain named.

The series “crystal structure” deals with the molecule itself. The experiment in a line: crystal structure.
The target in series [1] is B1. The experiment in a line: SPR. In general terms: Surface plasmon resonance follows binding to a sensor surface in real time, without labels.
Series [2] concerns the target T1, KR-mutant CHC hub (K1163E and R1165D). The experiment in a line: SPR.

Regarding B1, the “stoichiometry N” value in “crystal structure” was 3. On to B2, for which the values for the Kd in series [1] and in series [2] were 25 nM and 59.1 nM, respectively.

By stoichiometry N is commonly meant the number of molecules, sites or subunits per partner or assembly. In general, Kd refers to a measure of binding affinity in units of concentration. Read a high Kd as weaker binding.

For the origin of these results see paper PMC2975025 (Developmental cell, 2010).
